Data taken from a protein production outcome set (Wang et al. 2014).

Test: label from the status in PepcDB records

| Sequence | protein production |
| --- | --- |
| MKDTDETAFLNSLFMDFTSENELELFLKSLDEVWSEDLYSRLSAAGLIRHVISKVWNKEQHRISMVFEYDSKEGYQKCQEIIDKEFGITLKEKLKKFVFKIHNNRGVVVSEFIRST | not failed |
| KKKVLIYGAGSAGLQLANMLRQGKEFHPIAFIDDDRKKHKTTMQGITIYRPKYLERLIKKHCISTVLLAVPSASQVQKKVIIESLAKLHVEVLTIPNLDDLVNGKLSIGQLKEVSIDDLLGRVAVTPQAELMEANIKD | not failed |
| MQASASNSSSYTVNASVLHVRAGSSTSHDIISRVYNGQSLNVIGEENGWYKININGKTGFVSGEFVSKNGTSNSNVSTTGGKNKVTADVLRVRTAPNTSSSVSGRVYEGQTLNVIGQENGWVKINHNGQVGYVSGEFVSGVSSNAGSSNSNTNNNNQESVKPASGNYTVNVSSLRVRTGPSTSHTTVGSVTKGQVVQVVGEVQDWFKINYAGQTAYVSKDYVTKGGSSDNVTQGNNQNNNQNNNVTVQTGGTYVVNATSLRVRTGPATYHSVIGGVLNGTTLNVIGSEGSWFKVNYQGKTGYVSSEFMKFVKGGTTTPEQPKQPEQPNQGAIGDYYINASALNVRSGEGTNYRIIGALPQGQKVQVISENSGWSKINYNGQTGYIGTRYLSKTPVGGAVDNNKPNNNQNNNQNNNNNTGNNSGNSSSILAYAKGMQGVPYVWGGTSANGVDCSGYIYHVFKKFGHNISRQSVAGYWGSLPQTSNPQPGDLIYFQNTYKSGPSHMGIYLGGGSFIQAGDKGVAIASLSNSYWKSHFLGYTKAPLEHHHHHH | not failed |
| ENIKTILLTVLVVISLVFTWGIWTFQPNFSEGSSSTESTVRVKHKIEKTTQKLSETVRPRDMFIHDDGAHYKVDDNALYEEIWSDLPHWDVKGIKDISDQYDKAGFKSWFYGIGGSEAKLDLQFSDTIPIDIFQTLFKWSNQSFEYSSFDHILIPFNETKANKKIYLVSYSKQLILEVTVESANYRNIMNDLKNRQSNMPAFSLFSIGSKKEFLLPNKPLTMDKKEFVTESIKTNTFKQALFSDPSIVREDSNYNNRNVLTDGISRLDVNLSQRQVQFQQRNLVQSTSYQTGELIKKSQKYLEDTGSWTDHYQFFNINDSQQLSFYIFMDQIPVINSTAKPFGATSAITVQWANDDILSYKRPNYSLGTNPIKTSETELMGGSEVKMLLSKQTAYDTDKIDQIFLAYQLVSTSTNDDPLVELEPVWAMKVNGKIVPITKDLLRKEGANSGVE | failed |
| MVACRVRLGRHQGARAGRTVCPKHRLRARDAGSRECAALSAGCGRMGRMSEQSLPDGVRPQNADALPEYAERVLDMTELIPPGRVMTYGDVAEYLEEGGPRQVGRVMSLYGGGVPWWRVVRADGVLLAGHELEALDRYREEGTPLKEASRAAEGHLPRLDLKRARWDGEGRPQGHGGRAQGHT | failed |
| MSSSTDTAMAAAEPIWLQHLAEQNIADFIPHRAPMILIDKIISHQQDALETEVLITPQSAYFDEHRQAVPNYVGIEYMAQSIAALAGVEAKLRHDKIRVGFLLGSRKLALHTAQYELNRRYRTQVKRLYQEESGLAVFDCQIYLLPEAQAQQTPLLVAEANVNVFQPQDTQAYIASSQQA | failed |
| MTKLINFLAEYQREIESQPIELDLALFSRLVGLPFEAVLTQPSAPLVEACMKLIEFVDNENYLILPADRQMLEQIAFSNRYQSVQICDVVQGPHRFLAATFVLSKTTKVIAFRGPNGTLLSWKADLHFSFSSINKLKIQAHQYLLQALQHDNQNIYCVGFSQGASIAALACMDISDTHRHRIQTIIFDSPGLPDDHYQSPIPIIELVPPLSLFALVGEHPFHQITISSSSTGIWQHDLYSWEADSHGEFAKNIGITNPTTIQHQFIQLLPSNITDENIDRTLNVAISIFSQLNFHSTSELIKHWNQFNALIQTEITAENIVVKTAILRLQKLIFKNAALNLQSIPLN | failed |
| LAVIVVLGCFALGLGGIIGFVHKGEDYQAYQKLQWHTLAPEKIAPLVAQGYTVFVDITSDWCSICQTNKAEVTHREQVVNALMADDIILMQGNWSEADNTIAGYMQYEGIPGTPYNKIYGPRNPNGIVLPSKLTIEAVINGLAQA | failed |
| MFKGLRYLTFVFGGLLGILLAYGFGQVVELELSKFAVISIYSIFAIIFGIIFYLLFPVILKKLTVNFENMIKKAQKTPTSDIVTAIIGLIVGLIIAFLISLPISNIKFPVIGNLLSATITIFIYCALGFIGIKIAVDKKEEILKFKLFSREKSFKKGHVYPKILDTSVIIDGRIYDIIKTGFLEGPIIIAMFMVKELQYIADSEDPNRRQRGRRGLDILDLLQNEKNIEIKIVDKDYKNIKEVDHKLLKLTEDYHGKLITNDYNLNKVASLQKISILNINELALAVKPVVIQGEKLIVEVINRGKEPEQGLGYLSDGTMIVVEDGKDYIGQTIETTVTSILQTPAGKMIFTRKNLK | failed |
| MTIAVLGATGMVGSRVITEAGARGHRVLALSRKPASEDPNVTLIAADANDPSAVREALAGVASNRAADAVVLTVRTHPVDQEFLIGATRTVLDIAAQLGIRVLVVGGAGALRSPDDHDLLVADNPTYVPAEWKTTAAAGIAQLRACQAHADADWVYLSPPALLEPGERTGRYRRGTDTLLTSADGRSWISAEDLAVAVVDELETPGRERLITVAHRDEPPSA | failed |
| MTEISYEAIAFEQSGPITRITLNRPDAANGMNDTMTRELADAARRADTSGAKVVVLTGSGRFFSAGGDLKAFSTAPSRGAFIKGVADDLHRAISSFARMDAVLITAVNGTAAGAGFSIAVTGDLVLAAESASFTMAYTKVGLSPDGSASYYLPRLVGMRRAQELMLTNRTLSATEAYEWGLVTEVVPDADLADRATKLAEQVAAGSAGSNGAVKSLLLSSLKNSLEEQMEAEGRFIAARADSADGREGVDAFLGKRRPEFA | failed |
| MFSQTIFFGMKQSARGVSVAFSTLQEASMHKRVLIQAASALLALQFMAVPVFAAGSSGGGSDQTVTQCKKGEVWDKKKKKCVAPQEGMLDDDSIYDAGHALAMAGRYDEAISVLTLAANKQDPRILNYLGYSHRHSGRVTVGLGYYEEALRIDPNYTLVREYLGEAHLQIGDLAGAQQQLMEIEKRTGKGSREYGMLSEQIDHFMRS | failed |
| MVLIGTVVNGAAIVIAALIGLLVKNIPERVKTTLMQAIGLAIVLLGVKMGLQTEQFLIVICSLVIGGVIGEMINLEKRLDHLGRWIESKVGGKKDGSIATAFVTTTLIYVVGAMAVLGALDSGLRGDHSVLLTKALLDGFLAILFTSTLGIGVLFSAIPVVLYQGSIALFASQIDQYVPTALMDSFITEMSATGGVMIVAIGLNLLNVVNIRVANLLPSLVIVAVLVTFVYKGFPF | failed |
| MSQLVTHAFDDATALSFDGRQFHGQVKAEYYNMVGPFGGITAATMLKAAMSHPERLGQPLALTVNFAAPAKVAPFVIEAVPVRTNRSTQHFTLTMMQDGEVVTTATAVFGIRRESWSHTEAVMPDVPPPADVPRFVAPAPLPWMQWYHVRLIRGSAFDEVQDATTYQWMRDDPPRPLDHAALAALCDTFVPRVYVKLKRPVPIGTVTFTVYFLADPETIFRQGTNELLGVARATGFSHGYFDQIGEVWSQDGDLLATTTQLVYMKAPVSGSS | not failed |
| MTNMFSLLYPLISIVIGVVPLFIFKRNAYLLGIAAASYFTAIILKEIIQLSFRSFFITPTLPTYLSYGILTAIFEPGFAYLYLVLTKAKVNGQLGLSYGSYLAFYENAIFLGLLSLPNYLLLSVQFSVLSLALYGLERISSFILHLFWGFSSALSASKKNIKYLSVSMPYGMVDSVAAYYQLSHNISLVSTEIISLVVSISCLPIIVLWYKMDKRNQRLD | failed |
| MPMTLDLQPGQRLARGVARHLRAHGFVSVEEFVPARGLRVDVMGLGPKGEIWVIECKSSRADFQADAKWQGYLEWCDRYFWAVDMEFPAELLPAESGLLIADAYDAEIVRMAPEQKLAPARRKVLIQKFATHAARRLQALRDPEGHGIFE | not failed |
| MYMILELLNIIGIIAFTISGSLKGTNKGLDIFGVVTLGVITSYAGGIIADILLGIYPPQILKELNYLLLSVGISIFVFYFYKWLQTNPIKMIIAISDAVGLSTFATLGASLAYSYGLNPISVGLIAAIVGTGGGVIRDVLVNEIPMVLTKEIYATAALLSGFIYYFTTPYLHHDSLFVAFLGSFLLRILSIKYNFNLPKREDNKS | failed |
| MLNRGGFTYPGQRWKHCINTLLTGGVLLIVSASAYADSNALGYKIPGYELVYDAPMETTLTTPDLRPSDAVWISLFDNAQHTIELGQFYVANQAGTRLDSVLQHLRAAGERGVRIRLLLEEKGLKISTQDTLDQLKTIPNLELRVIPFERLSGGILHAKYLLVDGKQAYMGSQNLDWRALEHIHETGLLIDDPRVVNQISTIFEQDWQAQARLSNGETVPPLPASTDAVDRSGNYLVASPKAFNPAGVMDSEEELPRLLAEAQQQVRIQVMDYVPLSYGPDKTRPFYAVIDNAIRTAAARGVQVELMVSEWSTKMPNIAYLKSLALLPNIQIKTVSIPQVSSGFIPFARVIHSKIMTIDGTKTWIGTSNWSGGYLDNSRNLEMVIQNPAMAQRVDLLYTQLWNSAYAHPLRIDYDYPQPNPGGVKEKEQENTASSTTGGTVTAP | failed |
| MKNQSPVPSYEGNVFMIDARDLSIAWSEDSNHWTWLPLPNQNSNTILSSESVMEIAFLKSASWLDVAGKFDTRYLTPRTRYEVVFVVKLEYTFEWETLVKLKLDLPNTWEKPQEQSVDMFDYISDQWLDIPVGEFTTSKKNVGEISFAMYEHECQLWKSGLFVKGVTIRPKY | failed |
| SLDSINTRIAEELSALPSGRVQPQQVAAAVALLDEGSTVPFIARYRKEVTGSLDDTQLRMLEERLRYLRELEERRGAILASIEEQGKLTPELARDIKLADTKTRLEDLYLPYKQKRRTKGQIALEAGLGALADALFDDPTLVPESEAARFVDAEKGFADVKAVLEGAKYILMERFAEDATLLDKLRVFMKNEATLTARVVPGKEQEGAKFSDYFEHDEPLKSAPSHRALAIFRGRNEGVLSASLKVGEEAPGTLHPCEVMIAQRFGLSNQGRAADKWLAEVVRWTWKVKLYTHLETDLFGELRDGAEDEAISVFARNLHDLLLAAPAGPRATLGLDPGLRTGVKVAVVDATGKLLDTATVYPHAPKNQWDQTLAVLAALCAKHQVELIAIGNGTASRETDKLAGELIKKYPGMKLTKIMVSEAGASVYSASELAAKEFPELDVSLRGAVSIARRLQDPLAELVKIEPKSIGVGQYQHDVSQLKLARSLDAVVEDCVNAVGVDVNTASAALLARISGLNSTLAQNIVAHRDANGAFRTRDELKKVSRLGEKTFEQAAGFLRVMNGDNPLDASAVHPETYPLVQRIAADTERDIRSLIGDSAFLKRLDPKKFTDETFGLPTVTDILKELDKPGRDPRPEFKTAEFQEGVESLKDLKPGMVLEGVVTNVTNFGAFVDIGVHQDGLVHISALSEKFVKDPYEVVKAGDIVKVKVMEVDIPRNRVGLSMRMSDTPGEKVEGQRGGRPTGSGQPRQERGAPRGQSAPPANNAMAALFANAKQLKKK | not failed |
| MGAAVGTSEAIQMVNQRQAVWVDVRPTEQFQAGHIAQARSLPAADLEKKAGALPKNKPLIVVCEQGRDAARIAARLRSQGFAEVSVLEGGMRAWFAAGLPVTQKGLEHHHHHH | failed |
| MATFFFKTNYYQEIMLKRIFFLMIFFVSQTMASVFTHEEVQILKKHFLNNFQTNGAIVASPSQYNPNYYYDWIRDSAIAMGLVETWYEASQSARYKKLLLEYVSWTEKIQHQADPIAGQDILGEPKFYINGNPFDGEWGRPQNDGPALRASVLIRFAQQLLDHNEIDYVKSHLYNNTMDPQSMGTIKMDLEYIAHHWQDANFDLWEEVYGHHFFTAMAQQKALTDGAILAHQLHDRQAAVFYEMQANLINSRLKQHLDHQNKIIQATLLPHPGPQKTLELDSSVMLGILINPQKEGVFAPHHTFVQNTAKALHEQFNLMFPINKNRSGAILFGRYPGDTYDGYQTNSIGNPWFILTATMAEYYFTMAHNLSPNSINKLHIQNYLKKGDNYLRLIKQYGPDLNLSEQINLNTGVQQGATSLTWSYVSVLRAIHLREQLENRIKTTGWNTY | failed |
